From the supplement of paper PMC10126150
± gives the standard deviation of the averaged measurements.

tested on: ATP; test: switch fluorescence ratio, 500 uM ATP over buffer (Cy3 cluster intensity, sum of 5 cycles each) (fold (ratio)); higher = stronger signal-on switching upon ATP binding; sequences stand for … in TCGTCGGCAGCGTCAGATGTGTATAAGAGACAGTTTTTTTTTTTTTTTTTTTTTTTTT…TC; details: aptamer strand: ATP DNA aptamer (quencher-CACCTGGGGGAGTATTGCGGAGGAAGG + anchor), 100 nM annealed; ATP concentration: 500 uM
In short: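 Per cluster, summed Cy3 intensity from the target cycles was divided by that from the buffer cycles to give the fluorescence ratio, then averaged per switch-domain sequence. Clusters outside 100-1000 RFU were excluded. The Cy3-labelled switching-strand clusters, on a modified Illumina MiSeq flow-cell, were annealed to 100 nM quencher-labelled ATP aptamer and imaged in selection buffer, then after 15 min with 500 uM ATP at 22 °C, for five cycles with NaOH stripping and re-annealing between them.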
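Note: ATP exposure 15 min at 22 °C before imaging.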

TTGAGTGAAT and AGCTTTGTTT are within error of each other in switch fluorescence ratio: 1 ± 0.042 for the first, 1.01 ± 0.013 for the second.

TATGCATATG and GCGGCACGGG are the same in switch fluorescence ratio: 1.02 ± 0.048 for the first, 1.02 ± 0.054 for the second.

GGCTGAGGCG and CCGGTTGAGA are within error of each other in switch fluorescence ratio: 0.965 ± 0.024 for the first, 1 ± 0.016 for the second.

ATAGCTGTTA and TTGGTTTTTT are within error of each other in switch fluorescence ratio: 0.978 ± 0.05 for the first, 1 ± 0.034 for the second.

Going from AGCGATAGTC to TCAAATACG, the switch fluorescence ratio falls from 1.56 ± 0.024 to 1.057 ± 0.009.

Compared with TCTGGATCA, TGATTGGTCA is lower in switch fluorescence ratio: 1.0079 ± 0.00014 for the first, 0.967 ± 0.012 for the second.

First: TGCCGCCGGG
Second: TTTGAA
The switch fluorescence ratio of the first is higher: 1.03 ± 0.011 for the first, 0.9556 ± 0.0024 for the second.

First: TGGGAAAGCT
Second: TTTTGAGGAG
The switch fluorescence ratio of the first is higher: 1.256 ± 0.0016 for the first, 0.9807 ± 0.0038 for the second.

TTTGAACTTG and AAGAAATGGT are within error of each other in switch fluorescence ratio: 1.01 ± 0.024 for the first, 1.05 ± 0.043 for the second.

TCGTGTGATG and TTTTTCGGTG are within error of each other in switch fluorescence ratio: 0.9686 ± 0.0049 for the first, 1.04 ± 0.11 for the second.

AATGTAAAAG and GGGGGTCGAC are within error of each other in switch fluorescence ratio: 0.988 ± 0.039 for the first, 0.996 ± 0.043 for the second.

GGGTACTTGG and TTATGGACGT are within error of each other in switch fluorescence ratio: 0.99 ± 0.026 for the first, 1.01 ± 0.02 for the second.

AAGTTGCTTG and AAAAGTAGGA are within error of each other in switch fluorescence ratio: 0.989 ± 0.02 for the first, 0.984 ± 0.065 for the second.

CATTAGGTCT and GATTTTGGCT are within error of each other in switch fluorescence ratio: 0.981 ± 0.038 for the first, 0.9969 ± 0.0019 for the second.

TCTGAGTGCG and GGCGCTGGAT are the same in switch fluorescence ratio: 1.02 ± 0.02 for the first, 1.02 ± 0.019 for the second.

TGACCCTTAG and CATTCGTTGA are within error of each other in switch fluorescence ratio: 0.987 ± 0.025 for the first, 1.05 ± 0.08 for the second.

First: TATGTACCTT
Second: GTTGTGGGAA
The switch fluorescence ratio of the first is higher: 1.179 ± 0.0091 for the first, 0.98266 ± 0.00039 for the second.

GATTGTCCTT and AACAGTGTAG are within error of each other in switch fluorescence ratio: 0.9956 ± 0.0048 for the first, 1 ± 0.013 for the second.

Going from TGTTGCATAA to ACTGGGGATT, the switch fluorescence ratio rises from 0.968 ± 0.016 to 1.04 ± 0.036.

TTTTATCAA and TCAGAATTTT are within error of each other in switch fluorescence ratio: 1.07 ± 0.12 for the first, 1.04 ± 0.02 for the second.

First: CCTATCGTTG
Second: AGTAGGCAAG
The switch fluorescence ratio of the first is higher: 1.08 ± 0.0056 for the first, 1 ± 0.035 for the second.

Going from ATACGGTAAT to CAGAGAAGGC, the switch fluorescence ratio falls from 1.16 ± 0.052 to 0.991 ± 0.018.

Compared with GGGATGAGGA, ACTCATTCTC is higher in switch fluorescence ratio: 0.9848 ± 0.0044 for the first, 1.04 ± 0.033 for the second.

ATACTTAAGG and AAAAGGCGGT are within error of each other in switch fluorescence ratio: 1.016 ± 0.0013 for the first, 1.01 ± 0.012 for the second.

Going from CGATTTCGTT to GGCAGTCCTT, the switch fluorescence ratio rises from 0.984 ± 0.013 to 1.005 ± 0.0044.

GTTTGAGGGT and ATTGTTGTTA are within error of each other in switch fluorescence ratio: 0.9939 ± 0.0087 for the first, 0.98517 ± 0.00068 for the second.

GATTATCGTT and ACAGAGGGTG are within error of each other in switch fluorescence ratio: 1.03 ± 0.027 for the first, 1.08 ± 0.095 for the second.

ATGGCTTGGA and TTATGCTTCT are within error of each other in switch fluorescence ratio: 0.996 ± 0.029 for the first, 1.01 ± 0.053 for the second.

Compared with AAACGTAATA, ATACTTTAAA is lower in switch fluorescence ratio: 1.31 ± 0.014 for the first, 1.17 ± 0.1 for the second.

CAGAAGTCCA and GTTATTTAGG are within error of each other in switch fluorescence ratio: 0.991 ± 0.052 for the first, 0.9966 ± 0.0084 for the second.

Compared with AAACAGTAGA, GAGGGACTTG is lower in switch fluorescence ratio: 1.07 ± 0.042 for the first, 0.98 ± 0.012 for the second.

CCGGATCGCG and AGTGCCCAGG are within error of each other in switch fluorescence ratio: 1.043 ± 0.0047 for the first, 2.4 ± 1.6 for the second.

Going from ATGACTGATA to TTAAGGACTC, the switch fluorescence ratio rises from 1.028 ± 0.0038 to 1.1 ± 0.042.

AGGGAGAGCG and CAGAGTGTGA are within error of each other in switch fluorescence ratio: 0.991 ± 0.071 for the first, 1.005 ± 0.0086 for the second.

CAGTGGGTTT and TCGTTTTTGA are within error of each other in switch fluorescence ratio: 0.97 ± 0.032 for the first, 0.985 ± 0.039 for the second.

Compared with GTGGGGCATA, TTTCCCAATT is higher in switch fluorescence ratio: 0.982 ± 0.017 for the first, 1.16 ± 0.16 for the second.

CGGTGGCCGT and ACTTGGTCGT are within error of each other in switch fluorescence ratio: 1.02 ± 0.019 for the first, 1.04 ± 0.012 for the second.

TAGTTTTAT and TGATTAGGGT are within error of each other in switch fluorescence ratio: 0.973 ± 0.016 for the first, 1.05 ± 0.076 for the second.

TCACGGTAGG and AAGCGGGACG are the same in switch fluorescence ratio: 0.999 ± 0.012 for the first, 0.999 ± 0.054 for the second.

First: TTTACCGGAG
Second: TGTTTGAGAT
The switch fluorescence ratio of the first is higher: 1.15 ± 0.089 for the first, 1.01 ± 0.015 for the second.

Compared with AATGGTTCGG, CGGACTGGTT is higher in switch fluorescence ratio: 0.962 ± 0.036 for the first, 1.005 ± 0.0057 for the second.

Compared with ACCAAACGTG, ACCGGGGTGG is lower in switch fluorescence ratio: 1.23 ± 0.055 for the first, 0.991 ± 0.05 for the second.

GAGGTGGGGC and AAGTTCTATA are within error of each other in switch fluorescence ratio: 1.05 ± 0.028 for the first, 1.01 ± 0.043 for the second.

ATTATTGGTA and GGATTATGAA are within error of each other in switch fluorescence ratio: 0.987 ± 0.012 for the first, 0.994 ± 0.023 for the second.

TCGGGTCATG and GATTGGGGAT are within error of each other in switch fluorescence ratio: 1.04 ± 0.04 for the first, 0.992 ± 0.02 for the second.

GGGAAATCAT and GGGTCCATGC are within error of each other in switch fluorescence ratio: 0.997 ± 0.015 for the first, 1.01 ± 0.018 for the second.

GGTTATAATC and AGTAGGGTGT are within error of each other in switch fluorescence ratio: 0.969 ± 0.07 for the first, 0.968 ± 0.029 for the second.

CGGATGGGGC and TCGAGATGG are within error of each other in switch fluorescence ratio: 1 ± 0.042 for the first, 0.97289 ± 7.7e-05 for the second.

CTTGGTTTAG and ATATTAGAAC are the same in switch fluorescence ratio: 1.01 ± 0.035 for the first, 1.01 ± 0.0027 for the second.

AATGTTTTAC and GTTAGATGGG are within error of each other in switch fluorescence ratio: 0.97 ± 0.035 for the first, 1 ± 0.034 for the second.
